US20170240651A1 (Sanofi, published 2017)

T1: human anterior gradient protein 2 (AGR2) (human, UniProt O95994 21-175)
T1 chain: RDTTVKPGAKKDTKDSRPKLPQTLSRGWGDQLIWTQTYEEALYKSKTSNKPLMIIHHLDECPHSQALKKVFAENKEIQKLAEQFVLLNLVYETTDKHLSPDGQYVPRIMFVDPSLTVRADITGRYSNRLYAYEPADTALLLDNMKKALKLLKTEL

T2: human anterior gradient protein 2 (AGR2) (human, UniProt O95994 21-175, limits assumed)
T2 construct: also called hAG-2; antigen AGR2
T2 sequence (looked up): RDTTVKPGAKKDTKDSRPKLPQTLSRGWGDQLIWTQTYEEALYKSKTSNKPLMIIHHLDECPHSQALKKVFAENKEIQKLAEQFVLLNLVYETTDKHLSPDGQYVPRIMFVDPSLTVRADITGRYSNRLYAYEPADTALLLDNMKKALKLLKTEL

T3: AGR2 deletion mutant lacking the epitope … (UniProt O95994 21-175)
T3 construct: Made from the pcDNA3-AGR2-His eukaryotic expression plasmid by deletion mutagenesis; also called the mutated AGR2 protein; not shown: His tag of the pcDNA3-AGR2-His plasmid
T3 sequence (looked up): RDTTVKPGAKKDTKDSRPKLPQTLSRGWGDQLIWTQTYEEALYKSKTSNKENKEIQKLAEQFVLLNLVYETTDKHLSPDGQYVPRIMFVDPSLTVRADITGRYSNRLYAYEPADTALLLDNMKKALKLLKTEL


Legend:
[1] = target: T1, human anterior gradient protein 2 (AGR2); experiment: competitive ELISA
[2] = target: T2, human anterior gradient protein 2 (AGR2); experiment: competitive ELISA, AGR2 coated, antibody pre-incubated with soluble antigen
Procedure: The generated humanized antibody 18A4Hu1 was subjected to an affinity analysis and compared with the murine 18A4 antibody. Specifically, 3 ng/μl antigen AGR2 was used for coating the 96 well ELISA plates at 100 μl per well and blocked with blocking solution. Antibodies at 0.1 ng/μl were mixed 1:1 with antigens of different concentrations and incubated at 37° C. overnight, wherein the antigen concentration was serially diluted from 1000 nM. 100 μl incubated mixture was separately added into different ELISA plates and incubated at 37° C. for 1 hour. After washing the ELISA plates, the HRP-labeled secondary antibodies against human or mouse were added and incubated at 37° C. for 1 hour. Color development solutions A and B were added, each at 80 μl, and color was allowed to develop at 37° C. for 30 min. The reaction was stopped by adding 50 μl stopping solution and absorbance was determined at OD 450. Affinity plate was depicted and the affinities of the antibodies were calculated.

[3] = target: T3, AGR2 deletion mutant lacking the …; experiment: western blot
Procedure: The amino sequence of the monoclonal antibody corresponding to the epitopes of the antigen AGR2 was determined (see FIG. 23). The procedure was as followed: RNA was extracted from MCF cells. mRNA of AGR2 was obtained by PCR and reverse transcribed to obtain cDNA. The pcDNA3-AGR2-His eukaryotic expression plasmid was constructed and AGR2 was subjected to mutation by deletion. The upstream primer for the mutation was 5′-[…]-3′, and the downstream primer was 5′-[…]-3′. Such a mutation led to the deletion of the epitope […]. […] Then AGR2 was subjected to point mutation. The upstream primer for the mutation was 5′-[…]-3′, and the downstream primer was 5′-[…]-3′, wherein the “C” in the PDI active site “CXXS” was mutate to “S”. […] It was determined that the monoclonal antibody specifically bound to the epitope “[…]”, and may inhibit the PDI activity.

Kd [1] | binding result [2] | binding result [3] | Binder
3.02 nM | binds |  | humanized antibody 18A4Hu1 (antibody, V domains shown) VH: QVQLVQSGAEVKKPGASVKVSCKASGYTFTDYNMDWVRQAPGQGLEWIGDINPNYDTTSYNQKFKGKATLTVDKSTSTAYMELSSLRSEDTAVYYCARSMMGYGSPMDYWGQGTLVTVSS VL: EIVLTQSPATLSLSPGERATLSCRASKSVSTSGYSYMHWYQQKPGQAPRLLIYLASNLESGIPARFSGSGSGTDFTLTISRLEPEDFAVYYCQHIRELPRTFGGGTKLEIK
1.7 nM |  | no binding | murine anti-human AGR2 protein monoclonal antibody 18A4 (antibody, V domains shown, also called murine 18A4; the monoclonal antibody) VH: EVQLQQFGAELVKPGASVKISCKASAYTFTDYNMDWVKQSHGKSLEWIGDINPNYDTTSYNQKFKGKATLTVDKSSSTAYMELRSLTSEDTAVYYCARSMMGYGSPMDYWGQGTSVTVSS VL: DIVLTQSPASLTVSLGQRATISCRASKSVSTSGYSYMHWYQRKPGQPPKLLIYLASNLESGVPARFSGSGSGTDFTLNIHPVEGEDAATYYCQHIRELPRTFGGGTKLEIK
